Tests used:
[1] = system: Foc_TR4; experiment: In vitro spore germination and mycelial growth assay; assay type: cell-based, Fusarium oxysporum f.sp. cubense Tropical Race 4; details: Foc_TR4, in vitro fungal growth inhibition assay; read-out: IC50
[2] = system: TR4 Fusarium oxysporum f sp. cubense (Foc); experiment: ARSS greenhouse assay of acclimated tissue culture banana plants; assay type: in vivo; details: transgenic banana lines per payload, FIG. 15

B1: Sm-AMP-D1: Sm-AMP-D1 anti-microbial peptide, tested as purified protein in vitro (protein)
chain: MAKTVLGIHVTFLTLLFAVILLNDVMYTPVEGKICERASGTWKGICIHSNDCNNQCVKWENAGSGSCHYQFPNYMCFCYFNC
B1 was tested, and the IC50 [1] was 2.2 µM and the disease necrosis [2] was 27%.

From patent publication US20240141372A1, “TRANSGENIC BANANA PLANTS HAVING INCREASED RESISTANCE TO FUSARIUM OXYSPORUM TROPICAL RACE 4 AND METHODS OF PRODUCING SAME” (Elo Life Systems, priority 2022, published 2024)
